B1: Hadhb pS198 (protein, UniProt Q60587 35-475, looked up)
Trifunctional enzyme subunit …: SAPAVQTKSKKTLAKPNLKNIVVVEGVRIPFLLSGTSYKDLMPHDLARAALSGLLYRTNIPKDVVDYIIFGTVIQEVKTSNVAREAALGAGFSDKTPAHTVTMACISSNQAMTTAVGLIASGQCDVVVAGGVELMSDVPIRHSRNMRKMMLDLNKAKTLAQRLSLLTKFRLNFLSPELPAVAEFSTNETMGHSADRLAAAFAVSRMEQDKYALRSHSLAKKAQDEGHLSDIVPFKVPGKDTVSKDNGIRPSSLEQMAKLKPAFIKPYGTVTAANSSFLTDGASAMLIMSEDRALAMGYKPKAYLRDFIYVSQDPKDQLLLGPTYATPKVLEKAGLTMNDIDAFEFHEAFSGQILANFKAMDSDWFAQNYMGRKTKVGAPPLEKFNIWGGSLSLGHPFGATGCRLVMAAANRLRKDGGQYALVAACAAGGQGHAMIVEAYPK
modifications: phosphorylated at S198
B2: Arhgap35 pS1150 (protein, UniProt Q91YM2 1-1499, looked up)
Rho GTPase-activating protein …: MMMARKQDVRIPTYNISVVGLSGTEKEKGQCGIGKSCLCNRFVRPSADEFHLDHTSVLSTSDFGGRVVNNDHFLYWGEVSRSLEDCVECKMHIVEQTEFIDDQTFQPHRSTALQPYIKRAAATKLASAEKLMYFCTDQLGLEQDFEQKQMPDGKLLVDGFLLGIDVSRGMNRNFDDQLKFVSNLYNQLAKTKKPIVVVLTKCDEGVERYIRDAHTFALSKKNLQVVETSARSNVNVDLAFSTLVQLIDKSRGKTKIIPYFEALKQQSQQIATAKDKYEWLVSRIVKNHNENWPSVSRKMQASPEYQDYVYLEGTQKAKKLFLQHIHRLKHEHIERRRKLYLAALPLAFEALIPNLDEVDHLSCIKAKKLLETKPEFLKWFVVLEETPWDATSHIDNMENERIPFDLMDTVPAEQLYETHLEKLRNERKRAEMRRAFKENLETSPFITPGKPWEEARSFIMNEDFYQWLEESVYMDIYGKHQKQIIDRAKEEFQELLLEYSELFYELELDAKPSKEKMGVIQDVLGEEQRFKALQKLQAERDALILKHIHFVYHPTKETCPSCPACVDAKIEHLISSRFIRPSDRNQKNSLSDLNIDRINLVILGKDGLARELANEIRALCTNDDKYVIDGKMYELSLRPIEGNVRLPVNSFQTPTFQPHGCLCLYNSKESLSYVVESIEKSRESTLGRRDNHLVHLPLTLILVNKRGDTSGETLHSLIQQGQQIASKLQCVFLDPASAGIGYGRNINEKQISQVLKGLLDSKRNLNLVSSTASIKDLADVDLRIVMCLMCGDPFSADDVLSPVLQSQTCKSSHCGSSNSVLLELPIGLHKKRIELSVLSYHSSFSIRKSRLVHGYIVFYSAKRKASLAMLRAFLCEVQDIIPIQLVALTDGAIDVLDNDLSREQLTEGEEIAQEIDGRFTSIPCSQPQHKLELFHPFFKDVVEKKNIIEATHMYDNVAEACSTTEEVFNSPRAGSPLCNSNLQDSEEDVEPPSYHLFREDATLPSLSKDHSKFSMELEGNDGLSFIMSNFESKLNNKVPPPVKPKPPVHFDITKDLSYLDQGHREGQRKSMSSSPWMPQDGFDPSDYAEPMDAVVKPRNEEENIYSVPHDSTQGKIITIRNINKAQSNGSGNGSDSEMDTSSLERGRKVSAVSKPVLYRTRCTRLGRFASYRTSFSVGSDDELGPIRKKEEDQASQGYKGDNAVIPYETDEDPRRRNILRSLRRNTKKPKPKPRPSITKATWESNYFGVPLTTVVTPEKPIPIFIERCIEYIEATGLSTEGIYRVSGNKSEMESLQRQFDQDHNLDLAEKDFTVNTVAGAMKSFFSELPDPLVPYSMQIDLVEAHKINDREQKLHALKEVLKKFPKENHEVFKYVISHLNKVSHNNKVNLMTSENLSICFWPTLMRPDFSSMDALTATRSYQTIIELFIQQCPFFFYNRPISEPPGAAPGSPSAMAPTVPFLTSTPATSQPSPPQSPPPTPQSPMQPLLSSQLQAEHTL
modifications: phosphorylated S1150
B3: Plcg1 pS1233 (protein, UniProt P10686 2-1290, looked up)
1-phosphatidylinositol …: AGVGTPCANGCGPSAPSEAEVLHLCRSLEVGTVMTLFYSKKSQRPERKTFQVKLETRQITWSRGADKIEGSIDIREIKEIRPGKTSRDFDRYQEDPAFRPDQSHCFVILYGMEFRLKTLSLQATSEDEVNMWIKGLTWLMEDTLQAATPLQIERWLRKQFYSVDRNREDRISAKDLKNMLSQVNYRVPNMRFLRERLTDFEQRSGDITYGQFAQLYRSLMYSAQKTMDLPFLETNTLRTGERPELCQVSLSEFQQFLLEYQGELWAVDRLQVQEFMLSFLRDPLREIEEPYFFLDELVTFLFSKENSVWNSQLDAVCPETMNNPLSHYWISSSHNTYLTGDQFSSESSLEAYARCLRMGCRCIELDCWDGPDGMPVIYHGHTLTTKIKFSDVLHTIKEHAFVASEYPVILSIEDHCSIAQQRNMAQHFRKVLGDTLLTKPVDIAADGLPSPNQLKRKILIKHKKLAEGSAYEEVPTSVMYSENDISNSIKNGILYLEDPVNHEWYPHYFVLTSSKIYYSEETSSDQGNEDEEEPKEASGSTELHSSEKWFHGKLGAGRDGRHIAERLLTEYCIETGAPDGSFLVRESETFVGDYTLSFWRNGKVQHCRIHSRQDAGTPKFFLTDNLVFDSLYDLITHYQQVPLRCNEFEMRLSEPVPQTNAHESKEWYHASLTRAQAEHMLMRVPRDGAFLVRKRNEPNSYAISFRAEGKIKHCRVQQEGQTVMLGNSEFDSLVDLISYYEKHPLYRKMKLRYPINEEALEKIGTAEPDYGALYEGRNPGFYVEANPMPTFKCAVKALFDYKAQREDELTFTKSAIIQNVEKQDGGWWRGDYGGKKQLWFPSNYVEEMINPAILEPEREHLDENSPLGDLLRGVLDVPACQIAIRPEGKNNRLFVFSISMPSVAQWSLDVAADSQEELQDWVKKIREVAQTADARLTEGKMMERRKKIALELSELVVYCRPVPFDEEKIGTERACYRDMSSFPETKAEKYVNKAKGKKFLQYNRLQLSRIYPKGQRLDSSNYDPLPMWICGSQLVALNFQTPDKPMQMNQALFMAGGHCGYVLQPSTMRDEAFDPFDKSSLRGLEPCVICIEVLGARHLPKNGRGIVCPFVEIEVAGAEYDSTKQKTEFVVDNGLNPVWPAKPFHFQISNPEFAFLRFVVYEEDMFSDQNFLAQATFPVKGLKTGYRAVPLKNNYSEDLELASLLIKIDIFPAKENGDLSPFSGTSLRERASDASSQLFHVRAREGSFEARYQQPFEDFRISQEHLADHFDSRERRAPRRTRVNGDNRL
modifications: phosphorylated at S1233
B4: Smpx pT40 (protein, UniProt Q925F0 1-85, looked up)
Small muscular protein: MSKQPISNVRSIQANINIPMGAFRPGAGQPPRRKESTPGTAEGAPATPEEKKPVPGMKKFPGPVVNLSEIQNVKSELKYVPKGEQ
modifications: phosphorylated at T40
B5: Acadvl pT513 (protein, UniProt P45953 41-655, looked up)
Very long-chain specific …: ASEATQAVLEKPETLSSDASTREKPARAESKSFAVGMFKGQLTTDQVFPYPSVLNEGQTQFLKELVGPVARFFEEVNDPAKNDSLEKVEEDTLQGLKELGAFGLQVPSELGGLGLSNTQYARLAEIVGMHDLGVSVTLGAHQSIGFKGILLYGTKAQKEKYLPRVASGQALAAFCLTEPSSGSDVASIRSSAVPSPCGKYYTLNGSKIWISNGGLADIFTVFAKTPIKDAATGAVKEKITAFVVERSFGGVTHGLPEKKMGIKASNTSEVYFDGVKVPAENVLGEVGDGFKVAVNILNNGRFGMAATLAGTMKAIIAKAVDHATNRTQFGDKIHNFGVIQEKLARMAILQYVTESMAYMLSANMDQGFKDFQIEAAISKIFGSEAAWKVTDECIQIMGGMGFMKEPGVERVLRDIRIFRIFEGTNDILRLFVALQGCMDKGKELTGLGNALKNPLGNVGLLIGEASKQLRRRTGIGSGLSLSGIVHPELSRSGELAVQALEQFATVVEAKLMKHKKGIVNEQFLLQRLADGAIDLYAMVVVLSRASRSLSEGYPTAQHEKMLCDSWCIEAATRIRENMASLQSNPQQQELFRNFRSISKAMVENGGLVTSNPLRV
modifications: phosphorylated at T513
B6: Stk10 pS13 (protein, UniProt E9PTG8 1-967, looked up)
Serine/threonine-protein …: MAFANFRRILRLSTFEKRKSREYEHVRRDLDPNDVWEILGELGDGAFGKVYKAKNKETGALAAAKVIETKSEEELEDYIVEIEILATCDHPYIVKLLGAYYYDGKLWIMIEFCPGGAVDAIMLELDRGLTEPQIQVVCRQMLEALNFLHGKRIIHRDLKAGNVLMTLEGDIRLADFGVSAKNLKTLQKRDSFIGTPYWMAPEVVLCETMKDAPYDYKADIWSLGITLIEMAQIEPPHHELNPMRVLLKIAKSDPPTLLTPSKWSTEFRDFLKIALDKNPETRPSAAQLLQHPFVSTVTSNKALRELVAEAKAEVMEEIEDGKEDGSEKDAVSAVPPPVNHTQDSSANGTQPSLNSDKLLQDSSTPLPPSQPQEPVNGPCNQPSGDGSPQNTSPADEVSKNDNGLKVPVPLRKSRPLSVDARIQVTEEKQITDQAENPSSAASKPPKVNQSRPNSSALETLGVETLANGGLELPGSVTPNHSKRASDCSNLSTSESMDYGTSLSADLSLNKETGSLSLKGSKLHNKTLKRTRRFVVDGVEVSITTSKIISEDEKKDEEMRFLRRQELRELRLLQKEEHRNQTQLSTKHELQLEQMHRRFEQEINAKKKFYDVELENLERQQKQQVEKMEQDHSVRRREEAKRIRLEQDRDYARFQEQLKQMKKEVKRSIEKALRKQRQESMRMGQDSHTQKKQRLDRDFVAKQKEDLELAMKKLTAENRREICDKERDCLNKKQELLRDREAALWEMEEHQLQERHQLVKQQLKDQYFLQRHDLLRKHEKEREQMQRYNQRMMEQLKVRQQQEKARLPKIQRSDGKTRMAMYKKSLHINGAGSASEQREKVKQFSQQEEKRQKAERLQQQQKHENQMRDMVAQCESNMNELQQLQNEKCHLLVEHETQKLKALDESHNQSLKEWRDKLRPRKKALEEDLNQKKREQEMFFRLSEEAETRPTTPNRASKFFPYSSGDAS
modifications: phosphorylated at S13

Experiments:
[1] = test system: PKGIα (analogue-sensitive C42S/M438G), cGMP-activated; assay: Chemical genetic phosphoproteomic screen, cGMP-activated PKGIα C42S/M438G versus unactivated control; format: biochemical, human PKGIα; substrates in rat heart homogenate; conditions: for log2 fold changes: Group 1 (cGMP-activated) vs Group 3 (control)
Summary of the method: (§1)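 Substrates in rat left-ventricle homogenate (20 mg ml) are labelled by engineered Met438Gly PKGIα given a bulky N6-alkylated ATPγS analogue, either as disulfide-activated M438G (oxidized, DTT-free) or as cGMP-activated C42S/M438G. Covalent capture and LC–MS/MS identify sites relative to unactivated kinase.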

[2] = test system: PKGIα (analogue-sensitive M438G), disulfide-activated; assay: Chemical genetic phosphoproteomic screen, disulfide-activated PKGIα M438G versus unactivated control; format: biochemical, human PKGIα; substrates in rat heart homogenate; conditions: for log2 fold changes: Group 2 (disulfide-activated) vs Group 3 (control)
Summary of the method: as §1

Molecule | log2 fold changes [1] | log2 fold changes [2] | log2 fold change cGMP vs Control ([1]; control = PKGIα C42S/M438G) | log2 fold change Disulfide vs Control ([2]; control = PKGIα C42S/M438G)
B1 | 3.435 | 0.04396 | – | –
B2 | 0.1001 | 0.2658 | – | –
B3 | – | – | 4.5 | 1.819
B4 | 0.3577 | 1.906 | – | –
B5 | 3.595 | -0.899 | – | –
B6 | 0.7023 | 0.1825 | – | –
